Reference: paper PMC11471779

Biological target: CapGH3b (Alloprevotella sp. MAG60)
Test: SEC-MALS

Substance: CapGH3b (enzyme)
- stoichiometry N: 2
